Here are results for 2 molecules from US12391751B2, “Antibody against advanced glycation end products and use thereof” (Bloom Technology Corporation, priority 2018, dated 2025).

A short description of assay [1]: Reactivity of PB-1 with known AGEs by competitive ELISA (Example 31). The following applies: immobilized A-peak-BSA. It is filed as binding. The method, then:
Competitive ELISA was conducted using the reagents described in Example 13. A solution of A-peak-BSA prepared into 1 μg/mL in a coating solution was added at 100 μL/well to a 96-well microtiter plate (Costar) and incubated overnight at 4° C.
Each well after the immobilization treatment was washed three times with a washing solution (300 μL), and a blocking solution (200 μL) was added thereto and left at room temperature for 1 hour.
GAL691 (prepared in Example 16), GLAP (prepared in Example 12), Lys-hydroxy-triosidine (prepared in Example 17), GA-pyridine (prepared in Example 28), GOLD (prepared in Example 29), and Z-Lys were each dissolved in a phosphate buffer solution (0.2 M, pH 7.4) to prepare a 100 mM solution. Then, a 10 mM solution was prepared by dilution 10-fold with a diluting solution containing BSA (1 mg/mL, FUJIFILM Wako Pure Chemical Corp.). Sample solutions of 4-fold dilution series of 0.04, 0.16, 0.63, and 2.5 mM were further prepared with a diluting solution containing a 10% (v/v) phosphate buffer solution and 1 mg/mL BSA. Ten-fold dilutions of a phosphate buffer solution with a diluting solution containing 1 mg/mL BSA were prepared as blank solutions containing no sample in the same way as above. A 0.1 μg/mL solution of the PB-1 antibody was prepared with a diluting solution containing 1 mg/mL BSA.
Each well treated with the blocking solution was washed three times with a washing solution (300 μL), and the sample solutions of 4-fold dilution series (50 μL each) and the PB-1 antibody dilution solution (50 μL) were added thereto, stirred with a plate mixer for 2 minutes, and then incubated at room temperature for 1 hour.
After the competitive reaction, each well was washed three times with a washing solution (300 μL), and peroxidase-labeled anti-mouse IgG (H+L) polyclonal antibody, F(ab′)2 fragment (Kirkegaard & Perry Laboratories, Inc.) diluted into 0.05 μg/mL with a diluting solution containing 1 mg/mL BSA was added at 100 μL/well and left standing at room temperature for 1 hour.
After washing three times with a washing solution (300 μL), a substrate solution (ELISA POD substrate TMB kit (Popular), Nacalai Tesque, Inc.) was added at 100 μL/well and incubated at room temperature for 10 minutes under light shielding. Then, color development was terminated by the addition of 2 N sulfuric acid (50 μL).
Absorbance was measured at a dominant wavelength of 450 nm and a sub-wavelength of 650 nm with a microplate reader (Cytation 5, BioTek Instrument Inc.), and the absorbance at the sub-wavelength was subtracted from the absorbance at the dominant wavelength. Change in the absorbance of GAL691, GLAP, Lys-hydroxy-triosidine, GA-pyridine, GOLD, and Z-Lys was indicated as relative values to the absorbance of the blank solution.

The subject of the next assay is mouse retinal tissue. The assay is described as follows: Retinal tissue staining of diabetic mouse and control mouse (Example 36). The settings on record: diabetic mice compared with control mice; antibody 1 mg/mL diluted 500-fold; Alexa 594 secondary. As for the experimental part:
A C57BL6/J mouse (CLEA Japan, Inc.) on 13 days of pregnancy was purchased, and child mice were obtained. For diabetic mice, streptozotocin (FUJIFILM Wako Pure Chemical Corp.) was dissolved at 5 mg/mL in saline (Otsuka Pharmaceutical Co., Ltd.) and subcutaneously administered at 300 μL to a male child mouse 2 days after birth. For control mice, saline was subcutaneously administered at 300 μL to a male child mouse 2 days after birth. After living together with the mother mouse for 4 weeks and subsequent weaning, the diabetic mice were raised with HFD32 (CLEA Japan, Inc.) for 8 weeks. The control mice were raised with CE-2 (CLEA Japan Inc.) for 8 weeks.
1.875 mL of Domitor (Nippon Zenyaku Kogyo Co., Ltd.), 2 mL of midazolam (Sandoz K.K.), 2.5 mL of Vetorphale (Meiji Seika Pharma Co., Ltd.), and 18.625 mL of saline were mixed to prepare a three drug-mixed anesthetic. The body weight of each mouse was measured with a scale (TANITA Corp.), and the three drug-mixed anesthetic was intraperitoneally administered at […]. […]
Acetone (FUJIFILM Wako Pure Chemical Corp.) was incubated for 16 hours or longer in a freezer (Fukushima Industries Corp.) set to −30° C. to prepare cold acetone. […] Then, the fluorescence of Alexa 594 in the retina was observed under a confocal laser microscope (Olympus Corp.).

Another assay addresses Fru-AGEs-BSA (Bos taurus, UniProt P02769). The assay is described as follows: Specificity of SJ-5 by competitive ELISA (Example 7). In kind it is binding. The following applies: GAL13-BSA or Glycer-AGEs-BSA immobilized, POD-labeled SJ-5 0.4 μg/mL.

Sequence of Fru-AGEs-BSA (P02769 25-607): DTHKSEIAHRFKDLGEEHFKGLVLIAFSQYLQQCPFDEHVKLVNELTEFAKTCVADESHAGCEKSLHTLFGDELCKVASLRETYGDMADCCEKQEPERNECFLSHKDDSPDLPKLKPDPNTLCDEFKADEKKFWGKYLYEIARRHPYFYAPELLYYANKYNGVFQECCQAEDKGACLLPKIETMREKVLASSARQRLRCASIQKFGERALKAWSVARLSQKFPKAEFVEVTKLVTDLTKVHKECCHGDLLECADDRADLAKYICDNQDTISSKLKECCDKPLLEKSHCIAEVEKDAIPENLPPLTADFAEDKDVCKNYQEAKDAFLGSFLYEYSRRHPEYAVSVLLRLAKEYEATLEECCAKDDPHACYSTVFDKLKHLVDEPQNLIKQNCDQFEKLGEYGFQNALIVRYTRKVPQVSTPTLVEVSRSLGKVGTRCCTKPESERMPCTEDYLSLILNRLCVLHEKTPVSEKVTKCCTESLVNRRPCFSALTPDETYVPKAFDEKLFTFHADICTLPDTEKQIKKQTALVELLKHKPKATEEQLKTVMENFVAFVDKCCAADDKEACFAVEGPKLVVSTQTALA

B1: PB-1: mouse monoclonal antibody raised against A-peak-BSA; heavy-chain variable region SEQ ID NO 18, light-chain variable region SEQ ID NO 22 (antibody, listed as Mus musculus, V domains shown)
VH: EVRLQQSGPELVKPGTSVKISCKASGYSFTGYYMHWVKQSPVKSLEWIGRIIPYNGATSYNQNFKDKASLTVDKSSRTAYMDLHSLTSEDSAVYYCARSRYYGRAPYYFDYWGQGTTLTVSS
VL: DVVVTQTPLSLPVSLGDQASISCRSSQSIVHSNGNTYLEWYLQKPGQSPKLLIYKVSNRFSGVPDRISGSGSGTDFTLKISRVEAGDLGVYSCFQGSHVPFTFGSGTKLEIK
In the case of B1, in assay [1], the “recognition of GA-pyridine” value is listed as “does not recognize”, the “recognition of GLAP” value is “does not recognize”, the “recognition of GOLD” value is listed as “does not recognize” and the “recognition of Lys-hydroxy-triosidine” value is “does not recognize”. The “staining of retinal ganglion cell layer, internal and external granular layers, retinal pigment epithelial cell layer” value in the assay on mouse retinal tissue was “bind strongly”.

B2: SJ-5: mouse monoclonal antibody raised against GAL13-MSA; heavy-chain variable region SEQ ID NO 4, light-chain variable region SEQ ID NO 8 (antibody, listed as Mus musculus, V domains shown)
VH: EVMLVESGGRLVKPGGSLKLSCAASGFTFSSYGMSWVRQTPEKRLEWVATISGGGSYTYYPDSVKGRFTISRDNVKNNLYLQMSSLRSEDTALYYCARRGAYGDYGWFAYWGQGTLVTVSA
VL: DIVLTQSPATLSVTPGDSVSLSCRASQSINNNLHWYQQKSHESPRLLIKCASQSISGIPSRFSGSGSGTDFTLSINSVETEDFGMYFCQQSNSWPLTFGAGTKLELK
Turning to B2, in the assay with Fru-AGEs-BSA, the “specificity: reactivity with Fru-AGEs-BSA” value is “negative”.
